Data from PMC12666128, “Engineering ω-transaminase for efficient dihydroxyacetone transamination in serinol biosynthesis starting from methanol” (Synthetic and Systems Biotechnology, 2025).

Substrate: O=C(CO)CO
Type: biochemical, Chromobacterium violaceum
Conditions: DHA as varied substrate; PLP-dependent

B1: Cv-ωTA (Chromobacterium violaceum ATCC 12472) (protein)
chain: MQKQRTTSQWRELDAAHHLHPFTDTASLNQAGARVMTRGEGVYLWDSEGNKIIDGMAGLWCVNVGYGRKDFAEAARRQMEELPFYNTFFKTTHPAVVELSSLLAEVTPAGFDRVFYTNSGSESVDTMIRMVRRYWDVQGKPEKKTLIGRWNGYHGSTIGGASLGGMKYMHEQGDLPIPGMAHIEQPWWYKHGKDMTPDEFGVVAARWLEEKILEIGADKVAAFVGEPIQGAGGVIVPPATYWPEIERICRKYDVLLVADEVICGFGRTGEWFGHQHFGFQPDLFTAAKGLSSGYLPIGAVFVGKRVAEGLIAGGDFNHGFTYSGHPVCAAVAHANVAALRDEGIVQRVKDDIGPYMQKRWRETFSRFEHVDDVRGVGMVQAFTLVKNKAKRELFPDFGEIGTLCRDIFFRNNLIMRACGDHIVSAPPLVMTRAEVDEMLAVAERCLEEFEQTLKARGLA
Question: For B1, which Km is on record?
Answer: Its Km is 15.2 ± 0.11 mM.

Question: What about the kcat of the same protein?
Answer: The kcat was 1.61 ± 0.07 s⁻¹.

Question: What about the kcat/Km of the same protein?
Answer: Its kcat/Km is 100 M⁻¹ s⁻¹.
